6 molecules from paper PMC4213023, “Structural Basis of Substrate Selectivity of E. coli Prolidase” (PLoS ONE, 2014) can be followed below.

Positions count from the first letter of the chain named. Names may count otherwise.

Data set [1] deals with C[C@H](N)C(=O)N1CCC[C@H]1C(=O)O. Description: purified protein. Format: biochemical, Escherichia coli. The following applies: 50 mM Tris pH 8, 20 mM Mg(OAc)2, 25°C, 1 µM AlaDH and 2 mM NAD+ (coupling).
Data set [2] has as its system C[C@H](N)C(=O)N1CCC[C@H]1C(N)=O. Description: purified protein. In kind it is biochemical, Escherichia coli. The following applies: 50 mM Tris pH 8, 20 mM Mg(OAc)2, 25°C, 1 µM AlaDH and 2 mM NAD+ (coupling).
Data set [3] addresses Escherichia coli prolidase PepQ, wild type (Escherichia coli) (UniProt P21165).
Data set [4] has as its target Escherichia coli prolidase PepQ R370E (Escherichia coli) (UniProt P21165).
Data set [5] concerns the molecule itself. Description: crystal structure; PepQ 12 mg/ml in 50 mM Tris pH 7.4, 5 mM MgCl2, 5 mM DTT; hanging drop at 4°C, 20% PEG MME 5000, 0.1 M Bis-Tris pH 6.5; one dimer in the asymmetric unit.
Data set [6] deals with the molecule itself. Description: SEC; analytical gel filtration, Superose 6, PepQ 10 nM in 50 mM Tris pH 7.4, 50 mM KOAc, 10 mM Mg(OAc)2, 2 mM DTT, 0.4 mL/min, tryptophan fluorescence detection. On the technique in general: SEC sorts molecules by how far they enter the pores of the column.

For orientation: Km means the concentration of substrate that gives half-maximal velocity. For orientation: kcat means the number of substrate molecules converted per active site and unit of time at saturation. In general, kcat/Km refers to the second-order rate constant that governs catalysis at low substrate concentration. By stoichiometry N is commonly meant a count of units in the complex or per binding partner.

E. coli PepQ (Escherichia coli K-12): in data set [1], the Km worked out at 1.2 ± 0.1 mM, the catalytic constant (kcat) was 139 ± 2.5 s⁻¹ and the kcat/Km stood at 120000 M⁻¹ s⁻¹. For the same molecule, in data set [2], the Km came out at 6.6 ± 0.5 mM, the kcat was 80.7 ± 19.7 s⁻¹ and the kcat/Km was determined as 12000 M⁻¹ s⁻¹.

Consider AlaPro-CONH2 substrate dipeptide, for which the Km (mM) of hydrolysis of the dipeptide, coupled to AlaDH/NAD+ oxidation of alanine, 25°C in data set [3] was 6.6 mM; in data set [4] it was 4.7 mM.

As to AlaPro-COOH substrate dipeptide, the Km (mM) of hydrolysis of the dipeptide, coupled to AlaDH/NAD+ oxidation of alanine, 25°C was 1.2 mM in data set [3] and 127 mM in data set [4].

In the case of “E. coli PepQ (Escherichia coli K-12; R370E)”, in data set [2], the Michaelis constant (Km) was found to be 4.7 ± 0.2 mM, the kcat was 1.1 ± 0.4 s⁻¹ and the specificity constant (kcat/Km) amounted to 230 M⁻¹ s⁻¹.

B1: Escherichia coli prolidase PepQ, wild type (enzyme, UniProt P21165 1-443, looked up)
chain: MESLASLYKNHIATLQERTRDALARFKLDALLIHSGELFNVFLDDHPYPFKVNPQFKAWVPVTQVPNCWLLVDGVNKPKLWFYLPVDYWHNVEPLPTSFWTEDVEVIALPKADGIGSLLPAARGNIGYIGPVPERALQLGIEASNINPKGVIDYLHYYRSFKTEYELACMREAQKMAVNGHRAAEEAFRSGMSEFDINIAYLTATGHRDTDVPYSNIVALNEHAAVLHYTKLDHQAPEEMRSFLLDAGAEYNGYAADLTRTWSAKSDNDYAQLVKDVNDEQLALIATMKAGVSYVDYHIQFHQRIAKLLRKHQIITDMSEEAMVENDLTGPFMPHGIGHPLGLQVHDVAGFMQDDSGTHLAAPAKYPYLRCTRILQPGMVLTIEPGIYFIESLLAPWREGQFSKHFNWQKIEALKPFGGIRIEDNVVIHENNVENMTRDLKLA
notes: E. coli PepQ (prolidase), gene PCR amplified from chromosomal E. coli DNA; Cloned NdeI/XhoI into pET21a; Two Mg(II) ions per active site in the crystal; also called E. coli PepQ; WT; source: E. coli BL21[DE3], pET21a, purified (fast-flow Q anion exchange, phenyl-sepharose, ammonium sulfate precipitation)
In the case of B1, the “stoichiometry N” value in data set [5] came to 2.

B2: Escherichia coli prolidase PepQ R370E (enzyme, UniProt P21165 1-443, looked up)
chain: B1 chain with R370E
notes: E. coli PepQ (prolidase) with R370E, made by site-directed mutagenesis of the wild-type construct (domains of the parent printed as 1-159 and 160-443); Same construct as m1 apart from R370E; PDB 4QR8 is the wild-type parent; also called R370E PepQ; charge-reversed mutant of PepQ; source: E. coli BL21[DE3], pET21a, purified following the protocols used for the wild-type enzyme
Turning to B2, the binding result in data set [6] was “binds”.
